Experiment [1] has as its target recombinant gp41 (ARP680) (HIV-1). Nature of the experiment: ELISA. (In general: In an ELISA, binding on a coated surface is turned into a signal by an enzyme label.)
In experiment [2] the target is gp140UG37 (ARP698, Polymun) (HIV-1 strain UG037). In words: ELISA.

B1: VHH 2E7 (VHH)
VHH: DVQLQESGGGLVQPGGSLRLSCAASGNIVSIDAAGWFRQAPGKQREPVATILTGGATNYADSVKGRFTISRDNAKNTVYLQMNSLKPEDTAVYYCYAPMIYYGGRYSDYWGQGTQVTVS
Consider B1, for which the IC50 was 3.2 nM in experiment [1] and 0.9 nM in experiment [2].

Usually IC50 stands for the concentration at which inhibition is half-maximal.
